This note sets out measurements from the nanobody polyreactivity screen of Harvey et al. (2022).

The nature of this data set: yeast display, Sf9 membrane polyspecificity reagent, FACS + sequencing; frameworks hold sequencing errors. Summed up:
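After 36–48 hours of galactose induction, yeast (Saccharomyces cerevisiae BJ5465) displaying a synthetic nanobody library were stained at 4 °C for 1 hour with 10% biotinylated, detergent-solubilized Sf9 membrane reagent. Streptavidin microbeads enriched the stained cells before FACS sorting into low and high (top ~1%) gates on anti-HA and streptavidin fluorescence. Each clone's polyreactivity label reflects its gate of origin.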
“QVQLVESGGGSVQAGGSLRLCCAASGRILESYAMGWYRQAPGKERELVAAINSGASTYYADSVKGRFTISRDNAKNTVYLPMNSLKPEDTAVYYCAADYRYGAYDDWGQGTQVTVSS”: the “polyreactivity (PSR sort gate)” value is listed as “low polyreactivity”.
In the case of “QVQLVESGGGSVQAGGSLRLSCAASGIIFWYYTMGWYRQATGKERELVAAISWSSGITYYADSLKGRFTISRDNAKNTVYLQMNSLKPEDTAVYYCSAGYYKGFTLVRVIFDYWGQGTQVTVSS” it was “low polyreactivity”; in that of “QVQLVESGGGSVQAGGSLRLSCAASGITSYGYAMGWYRQAPGKERDLVASISRTGGNTYADSVKGRFTISRDNAKNTVYLQMNSLKPEDTAVYYCNAGRSWDYWYGYDYWGQGTQVTVSS”, “low polyreactivity”.
The entry for “QVQLVESGGGSVQAGGSLRLSCAASGRTFVRYAMGWYRQAPGKERELVAAITWSGGSTYYADSVKGRFTISRDNAKNTVYLQMNSLKPEDTAVFNCADYPVQWGSLYDYWGQGTQVTVSS” is “high polyreactivity”; for “QVQLVESGGGSVQAGGSLRLSCAASGSTIRYYAMGWYRQAPGKERELVARITSRAGRTYYADSVKGRFTISRDNAKNTVYLQMNSLKPEDTAVYYCNTRDFSGYVHALSLYDYWGQGTQVTVSS” it is “high polyreactivity”; for “QVQLVESGGGSVQAGGSLRLSCAASGYIFGVYAMGWYRQAPGKERELVAAISSGGSTNYADSVKGRFTISRDNAKNTVYLQMNSLKPEDTAVYYCNADYIFYYEYDYWGQGTQVTVSS” it is “low polyreactivity”.
Consider “QVQLVESGGGVGQAGGSLRLSCAASGLSCVDYAMGWYRQAPGKERELVAAISTTGGSTYYADSVKGRFTISRDNAKNTVYLQMKSLKPEDTAVYYCNARFVHHSWGTNYYWGQGTQVTVSS”, for which the “polyreactivity (PSR sort gate)” value is on record as “high polyreactivity”.
In the case of “QVQLVESGGGVVQAGGSLRFSCAASGSIFPGYAMGWYRQAPGKEREMVATITWSGGTTYYADSVKGRFTISRDYAKNTVYFQMNSLKPEDTAVYYCNATFGYPFLDYDDYWGQGTQVNVSS” it was “low polyreactivity”; in that of “QVQLVESGGGVVQAGGSLRISCAASRLIFRRNAMGWYGQAPGKERELVAAISRTGGSTYDADSVKGRFTISRDNAKNPVYLQRNSLIPEDTAVYYCATDTRDYDYTDEYWGHGTQVTVSS”, “low polyreactivity”.
On to “QVQLVESGGGVVQAGGSLRLSCAASGFIFSYNVMVWYRQAPGKERELVAAISSSGGSTYYADSVKGRFTISRDNAKNTAYLQMNSLKPEDTAVYYCATRVSRSFRAYDYWGQGTQVTVSS”, for which the “polyreactivity (PSR sort gate)” value is on record as “high polyreactivity”.
In the case of “QVQLVESGGGVVQAGGSLRLSCAASGFIYRWNAMGLNRQAPGKERELVAAMSARGGSTYDADSVKGRFTIARDNAKNTVYLPMNSLKPEDTAVYYCARAKRVHTEYDYWGQGTQVTVSS” it was “high polyreactivity”; in that of “QVQLVESGGGVVQAGGSLRLSCAASGITFNGNAMGWYRQAPGKERELVATISRSDGRTYYADSVKGRFTISRDNAKNTDYFQMNSLKPEDTAVYYCAAYTTRPYWGQGTQVTVSS”, “high polyreactivity”.
In the case of “QVQLVESGGGVVQAGGSLRLSCAASGLIFRRYAMGWYRQAPGIERELVAAISGNGGSTYYADSVKGRFTISRDKAKNTVYVQMNCLKPEDTAVYYCAARSLGIYNYWGQGTQVTVSS” it was “high polyreactivity”; in that of “QVQLVESGGGVVQAGGSLRLSCAASGRICAYYTMGWYRQAPGKERELVAAINQSGGSTYYADSVKGRFTISRDNAKYTEYLQMNSLKPEDTAVFYCAAQPTIYSTPHPEYNYWGQGTQVNVSS”, “low polyreactivity”.
In the case of “QVQLVESGGGVVQAGGSLRLSCAASGRIFARYTMGWYRQAPGKEREFVAGIRSSGGRTYYADSVKGRFTISRDTAKNTVYLQMNSLKPEDSAVYYCNAGGSWYFARYDYWGEGTQVTVSS” it was “low polyreactivity”; in that of “QVQLVESGGGVVQAGGSLRLSCAASGRIFVYYMGWYRQAPGKERVLVAAISVGGGSTYYADSVKGRFTISRDHAKNTVYLQMNSLKPEDTAVYYCAAAWSNYFGDPSYYWGQGTQVTVSS”, “low polyreactivity”.
Turning to “QVQLVESGGGVVQAGGSLRLSCAASGRIFYYNARGWYRQAPGKERELVAVISRNGGRTYYADSVKGRFTISRDNAKITVYLQMNSLKPEDTAVYYCAARSAGDRYDYWGQGTQVTVSS”, the “polyreactivity (PSR sort gate)” value is on record as “high polyreactivity”.
As to “QVQLVESGGGVVQAGGSLRLSCAASGRINARYAMGWYRQAPGKERELVAAITSGGGTYYADSVKGRFTISRDNAKNTVYLQMNSLKPEDTAVYYCAARWLSRGYEYYYWGQGTQVTVSS”, the “polyreactivity (PSR sort gate)” value is on record as “high polyreactivity”.
With “QVQLVESGGGVVQAGGSLRLSCAASGRTFKPYAMGWYRQAPGKERELVAAISSGVSTHYADSVKGRFTISRDNAKNTVYLQMNSLKPEDTAVYYCAADYWVNYWFDYWGQGTQVTVSS”, the “polyreactivity (PSR sort gate)” value is reported as “low polyreactivity”.
The entry for “QVQLVESGGGVVQAGGSLRLSCAASGRTFMVNAMGWYRQAPGKERELVAAISQRGGSTDYADSVKGRFTISRDNAKNTVYLQMNSLIPEDTAVYYCAADSLRGSAPTYYSTLEYWGQGTQVTVSS” is “low polyreactivity”; for “QVQLVESGGGVVQAGGSLRLSCAASGRTFSYNALGWNRQAPGKEREVVAAINGDGGSTYYADSVKGRFTSSRDNAKNTVYLQMNSLKPEDTAVYYCNRRGIYRYGYWGQGTEVTVSS” it is “high polyreactivity”; for “QVQLVESGGGVVQAGGSLRLSCAASGSIFLYIYAKGWYRHAPGKERELVATINWDGGSTYYADSVKGRFTISRDNAKNTVYLQMNSLKPEDTAVYYCAADWYYSYYFYRFDYWGQGTQVTVSS” it is “low polyreactivity”.
For the sequence “QVQLVESGGGVVQAGGSLRLSCAASGSIFYVYSMGWYRQAPGKERELVAAISRSGTNTYYADSVKGRFTISRDNAKNTVYLQMNSLKPEDTAVYYCNADAAYLVTQPYDDNYDYWGQGTQVTVSS”, the “polyreactivity (PSR sort gate)” value is “low polyreactivity”.
The entry for “QVQLVESGGGVVQAGGSLRLSCAASGSIVYSYAMGWYRQAPGKERELVARIRWGGGRTYYADSVKGHFAISRDNAKNTVYLQMNSLKPEDTAVYYCAASYVYPASFHYYYWGQGTQVTVSS” is “high polyreactivity”; for “QVQLVESGGGVVQAGGSLRLSCAASGSTFDVYAMGWYRPAPGKERELVAAITSGGTTNYADSVKGRFTISRDNAQNTVYLQLNSLKPEDTAVYYCAADSPWGGGYFVLYNYWGQGTQVTVSS” it is “low polyreactivity”; for “QVQLVESGGGVVQAGGSLRLSCAASGSTFRTNAMGWYRQAPGKERELVAAITSTGGSTYYADSVKGRFTISRDNAKNTVYLQMNSLKPEDTAVYYCAAYYVPGYYYWGQGTQVTVSS” it is “high polyreactivity”.
The entry for “QVQLVESGGGVVQAGGSLRLSCAASGSTFRYNARGWYRQAPGKEREFVAAITTSGVRTYYADSVKGRFTISRDNAKNTVYLQMNSLKPEDTAVYYCARRTPGTRWNYDYWGQGTQVTVSS” is “high polyreactivity”; for “QVQLVESGGGVVQAGGSLRLSCAASGSTFYPYAMGWYRPAPVKERELVASISSRGGTTYYADSEKGRFTISRDNAKNTVYLQRNSLKPEDTAVYYCAATYKHLNPLGVFSGGYYYWGQGTQVTVSS” it is “high polyreactivity”; for “QVQLVESGGGVVQAGGSLRLSCAASGSTLSYYAMGLYIQAPGTERELVAAITSGVSTNYADSVKGRFTISRDNAKNTVYFQMNSLKPEDTAVYYCAKAYGGYHDDYDYWGQVTQVTVSS” it is “low polyreactivity”.
For “QVQLVESGGGVVQAGGSLRLSCAASGYIYLVYAMGWYRQATGKETELVAAISSGGSTYYADSVKGRFTISRDNAKNTVYLQMNSLKPEDTSVYYCATAGLALYAFRDDYWGQGTQVTVSS”, the “polyreactivity (PSR sort gate)” value is reported as “low polyreactivity”.
